We go through 9 molecules from patent US20250276075A1, “METHODS OF TREATING AXL-EXPRESSING CANCERS WITH ANTI-AXL ANTIBODIES, ANTIBODY FRAGMENTS AND THEIR IMMUNOCONJUGATES” (BIOATLA, INC., priority 2020, published 2025).

Sequences and labels used below:
T1: Axl (Homo sapiens, UniProt P30530)
T1 sequence (P30530 26-451 limits assumed): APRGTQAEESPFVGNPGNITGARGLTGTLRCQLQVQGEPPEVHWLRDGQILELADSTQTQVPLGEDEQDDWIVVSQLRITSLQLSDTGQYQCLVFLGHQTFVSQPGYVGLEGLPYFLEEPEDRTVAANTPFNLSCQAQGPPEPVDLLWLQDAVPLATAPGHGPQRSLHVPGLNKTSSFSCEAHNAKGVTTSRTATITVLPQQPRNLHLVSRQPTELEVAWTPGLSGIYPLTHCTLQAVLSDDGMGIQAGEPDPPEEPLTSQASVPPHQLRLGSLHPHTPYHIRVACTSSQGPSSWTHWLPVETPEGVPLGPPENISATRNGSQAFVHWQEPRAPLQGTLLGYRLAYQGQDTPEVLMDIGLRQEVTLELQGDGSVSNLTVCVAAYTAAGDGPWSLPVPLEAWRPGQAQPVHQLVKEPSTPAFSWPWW

B1: HC-Y104C (antibody, V domains shown)
VH: EVQLVQSGAEVKKPGATVKISCKVSGYSFTGHTMNWIRQPPGKGLEWIGLIKPSNGGTSYNQKFKGRVTISADKSISTAYLQWSSLKASDTAMYYCAHGHYESCFAMDYWGQGTLVTVSS
VL: DIQMTQSPSSLSASVGDRVTITCKASQDVSSAVAWYQQKPGQAPRLLIYWASTRHTGVPSRFSGSGSGTEFTLTISSLQPDDFATYYCQEHFSTPLTFGQGTKVEIK
B2: HC-F105N (antibody, V domains shown)
VH: B1 VH with C104Y, F105N
VL: B1 VL
B3: HC-Y101N (antibody, V domains shown)
VH: B1 VH with Y101N, C104Y
VL: B1 VL
B4: HC-E102I (antibody, V domains shown)
VH: B1 VH with E102I, C104Y
VL: B1 VL
B5: HC-E102A (antibody, V domains shown)
VH: B1 VH with E102A, C104Y
VL: B1 VL
B6: HC-Y104P (antibody, V domains shown)
VH: B1 VH with C104P
VL: B1 VL
B7: HC-E102F (antibody, V domains shown)
VH: B1 VH with E102F, C104Y
VL: B1 VL
B8: HC-Y104E (antibody, V domains shown)
VH: B1 VH with C104E
VL: B1 VL
B9: HC-T033I (antibody, V domains shown)
VH: B1 VH with T33I, C104Y
VL: B1 VL

Residue numbers refer to the chain shown, from its start. In names and notes the source's numbering stands.

The target in one test is Axl (UniProt P30530). Put plainly: ELISA, 1:3 dilution.
Conditions: not given
Background: ELISA stands for enzyme-linked immunosorbent assay.
Turning to B1, the Affinity ELISA CPE mutant ratio (1:3, pH 6.0/7.4) came to 1.84.

For B2, the Affinity ELISA CPE mutant ratio (1:3, pH 6.0/7.4) stood at 2.36.

On to B3, for which the Affinity ELISA CPE mutant ratio (1:3, pH 6.0/7.4) came out at 2.17.

As to B4, the Affinity ELISA CPE mutant ratio (1:3, pH 6.0/7.4) came out at 2.02.

On to B5, for which the Affinity ELISA CPE mutant ratio (1:3, pH 6.0/7.4) was found to be 1.54.

Regarding B6, the Affinity ELISA CPE mutant ratio (1:3, pH 6.0/7.4) was found to be 2.54.

For the molecule B7, the Affinity ELISA CPE mutant ratio (1:3, pH 6.0/7.4) turned out to be 1.88.

For the molecule B8, the Affinity ELISA CPE mutant ratio (1:3, pH 6.0/7.4) was 1.32.

Regarding B9, the Affinity ELISA CPE mutant ratio (1:3, pH 6.0/7.4) is 1.59.

A further test has as its target Axl (UniProt P30530). As to the kind of experiment: ELISA, 1:9 dilution.
Conditions: not given
For B1, the Affinity ELISA CPE mutant ratio (1:9, pH 6.0/7.4) was 1.74.

Consider B2, for which the Affinity ELISA CPE mutant ratio (1:9, pH 6.0/7.4) was 2.64.

Take B3: the Affinity ELISA CPE mutant ratio (1:9, pH 6.0/7.4) worked out at 2.91.

With B4, the Affinity ELISA CPE mutant ratio (1:9, pH 6.0/7.4) stood at 1.7.

As to B5, the Affinity ELISA CPE mutant ratio (1:9, pH 6.0/7.4) is 1.69.

For the molecule B6, the Affinity ELISA CPE mutant ratio (1:9, pH 6.0/7.4) is 2.42.

B7: the Affinity ELISA CPE mutant ratio (1:9, pH 6.0/7.4) was 1.36.

For B8, the Affinity ELISA CPE mutant ratio (1:9, pH 6.0/7.4) is 1.8.

On to B9, for which the Affinity ELISA CPE mutant ratio (1:9, pH 6.0/7.4) turned out to be 1.

The target of the next test is T1, Axl. Put plainly: Affinity ELISA of CPE mutant antibodies for binding to Axl at pH 6.0 over pH 7.4. The conditions noted are these: heavy chain variable region mutants; 1:3 dilution. Put shortly: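 Single-point mutant anti-Axl antibody library (CPE) screened by ELISA for binding at pH 6.0 versus pH 7.4, at 1:3 and 1:9 antibody dilutions, in serum with FLAG-tag detection and carbonate (Krebs-Ringer) buffer. Selection criterion: pH 6.0/pH 7.4 binding ratio ≥1.5 at either dilution.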
Consider B1, for which the “Affinity ELISA CPE mutant ratio (1:3, pH 6.0/7.4)” value is recorded as 1.845.

Turning to B2, the “Affinity ELISA CPE mutant ratio (1:3, pH 6.0/7.4)” value came to 2.364.

As for B3, the “Affinity ELISA CPE mutant ratio (1:3, pH 6.0/7.4)” value was found to be 2.174.

As for B4, the “Affinity ELISA CPE mutant ratio (1:3, pH 6.0/7.4)” value is listed as 2.016.

With B5, the “Affinity ELISA CPE mutant ratio (1:3, pH 6.0/7.4)” value was determined as 1.538.

Take B6: the “Affinity ELISA CPE mutant ratio (1:3, pH 6.0/7.4)” value came to 2.535.

As for B7, the “Affinity ELISA CPE mutant ratio (1:3, pH 6.0/7.4)” value was 1.879.

For B8, the “Affinity ELISA CPE mutant ratio (1:3, pH 6.0/7.4)” value is given as 1.321.

As for B9, the “Affinity ELISA CPE mutant ratio (1:3, pH 6.0/7.4)” value was 1.594.

The same test, now with this note: heavy chain variable region mutants; 1:9 dilution.
On to B1, for which the “Affinity ELISA CPE mutant ratio (1:9, pH 6.0/7.4)” value is on record as 1.741.

On to B2, for which the “Affinity ELISA CPE mutant ratio (1:9, pH 6.0/7.4)” value stood at 2.642.

With B3, the “Affinity ELISA CPE mutant ratio (1:9, pH 6.0/7.4)” value worked out at 2.907.

In the case of B4, the “Affinity ELISA CPE mutant ratio (1:9, pH 6.0/7.4)” value was 1.696.

Take B5: the “Affinity ELISA CPE mutant ratio (1:9, pH 6.0/7.4)” value turned out to be 1.687.

For B6, the “Affinity ELISA CPE mutant ratio (1:9, pH 6.0/7.4)” value came to 2.416.

Regarding B7, the “Affinity ELISA CPE mutant ratio (1:9, pH 6.0/7.4)” value turned out to be 1.363.

B8: the “Affinity ELISA CPE mutant ratio (1:9, pH 6.0/7.4)” value is on record as 1.796.

Take B9: the “Affinity ELISA CPE mutant ratio (1:9, pH 6.0/7.4)” value worked out at 1.005.
